Results on two molecules are retold here after article PMC10397247.

Assay in all cases: two-hybrid library CCNG1;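 also: natural log of median RNA to DNA barcode read ratio; higher means stronger binding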
The target in one assay is T1, 4H3462-bN.
T1 chain: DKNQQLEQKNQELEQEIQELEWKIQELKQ

For another assay, the target named is T2, 4H1710-bN.
T2 chain: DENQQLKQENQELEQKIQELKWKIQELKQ

A further assay has as its target T3, 4H3175-bN.
T3 chain: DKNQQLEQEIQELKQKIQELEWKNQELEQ

The next assay has as its target T4, 4H626-bN.
T4 chain: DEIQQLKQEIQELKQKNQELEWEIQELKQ

For another assay, the target named is T5, 4H3277-bN.
T5 chain: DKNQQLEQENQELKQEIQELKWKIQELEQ

The next assay has as its target T6, 4H3628-bN.
T6 chain: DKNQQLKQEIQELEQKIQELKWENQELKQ

The target of a further assay is T7, 4H3926-bN.
T7 chain: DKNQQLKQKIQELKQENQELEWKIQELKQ

The target of a further assay is T8, 4H1985-bN.
T8 chain: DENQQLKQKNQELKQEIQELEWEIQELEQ

A further assay deals with T9, 4H918-bN.
T9 chain: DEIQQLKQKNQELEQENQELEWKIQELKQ

For another assay, the target named is T10, 4H3858-bN.
T10 chain: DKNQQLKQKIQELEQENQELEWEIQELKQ

The next assay concerns the target T11, 4H850-bN.
T11 chain: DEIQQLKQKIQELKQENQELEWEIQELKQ

For another assay, the target named is T12, 4H1544-bN.
T12 chain: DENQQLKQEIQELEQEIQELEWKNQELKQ

A further assay addresses T13, 4H1899-bN.
T13 chain: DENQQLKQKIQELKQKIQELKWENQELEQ

Another assay concerns the target T14, 4H3817-bN.
T14 chain: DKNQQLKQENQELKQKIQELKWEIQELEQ

Another assay has as its target T15, 4H3162-bN.
T15 chain: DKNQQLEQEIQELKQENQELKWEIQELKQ

For another assay, the target named is T16, 4H3298-bN.
T16 chain: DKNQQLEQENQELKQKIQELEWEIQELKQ

The target in a further assay is T17, 4H906-bN.
T17 chain: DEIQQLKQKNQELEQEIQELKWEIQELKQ

In a further assay the target is T18, 4H3613-bN.
T18 chain: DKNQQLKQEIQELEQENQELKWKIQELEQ

The target of a further assay is T19, 4H591-bN.
T19 chain: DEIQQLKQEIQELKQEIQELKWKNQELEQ

The target of another assay is T20, 4H3974-bN.
T20 chain: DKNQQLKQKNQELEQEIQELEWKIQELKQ

In another assay the target is T21, 4H3497-bN.
T21 chain: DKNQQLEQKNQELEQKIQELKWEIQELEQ

For the next assay, the target named is T22, 4H570-bN.
T22 chain: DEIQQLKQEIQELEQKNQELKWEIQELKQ

The target in another assay is T23, P9mS.
T23 chain: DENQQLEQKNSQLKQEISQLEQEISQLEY

A further assay deals with T24, P6mS.
T24 chain: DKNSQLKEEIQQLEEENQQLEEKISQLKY

A further assay concerns the target T25, P7mS.
T25 chain: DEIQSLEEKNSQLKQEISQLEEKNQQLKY

The target in a further assay is T26, P8mS.
T26 chain: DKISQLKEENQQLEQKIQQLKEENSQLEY

B1: 4H1544-bN (peptide)
chain: DENQQLKQEIQELEQEIQELEWKNQELKQ
For B1, the interaction score was 1.08 with 4H3462-bN; 1.41 with 4H1710-bN; 0.167 with 4H3175-bN; -1.03 with 4H626-bN; -0.11 in the assay with 4H3277-bN; 0.019 with 4H3628-bN. Moreover, the interaction score with 4H3926-bN was -0.652; with 4H1985-bN, -0.277; in the assay with 4H918-bN it was -0.127; with 4H3858-bN it was -0.293; in the assay with 4H850-bN, 0.669; with 4H1544-bN, -2.02. Further, the interaction score was 1.82 in the assay with 4H1899-bN; -0.351 with 4H3817-bN; -1.96 in the assay with 4H3162-bN; -0.192 with 4H3298-bN; -0.343 with 4H906-bN; -1.07 in the assay with 4H3613-bN. Moreover, the interaction score with 4H591-bN was -0.583; in the assay with 4H3974-bN, -0.0151; in the assay with 4H3497-bN, 0.211; with 4H570-bN, -0.108.

B2: P6mS (peptide)
chain: DKNSQLKEEIQQLEEENQQLEEKISQLKY
Take B2: the interaction score with P9mS was -0.654; with P6mS, -0.275; with P7mS, -2.21; in the assay with P8mS, -0.784.
